Data from US20250066490A1, “ANTI-CD70 ANTIBODIES, CONJUGATES THEREOF AND METHODS OF USING THE SAME” (ProfoundBio US Co., priority 2021, published 2025).
Read-outs that look alike come from different tables or passages of the source.

Tests used:
Raji cells = assay: Internalization time course, Raji; assay type: cell-based, human; details: up to 4 hr, FIG. 13
Description: Four cell lines ([…]), Caki-1, Raji, MCF-7) were utilized in the internalization assay. Target (CD70) copy numbers were determined via the QIFIKIT (DAKO, K0078). Briefly, cells were labeled with a primary mouse monoclonal antibody against CD70. Cells, Set-up beads, Calibration beads (from the kit) were then labeled in parallel with a fluorescein-conjugated anti-mouse secondary antibody. The fluorescence is correlated with the number of bound primary antibody molecules on the cells and on the beads. Samples were subsequently analyzed on the flow cytometer and copy number determined based on the calibration curve (Table 11). For internalization assay, 3×10^5 cells were incubated at 4° C. for 30 min with 10 µg/ml 2E7 in FACS buffer (1×PBS containing 0.1% BSA). Cells were washed at 4° C. to remove unbound material and kept on ice or shifted to 37° C. for different lengths of time. At progressive timepoints ([…], 0.5, 1, 2, 3, 4 hr) cells were stained with PE-conjugated anti-human Fc for 30 min at 4° C. and analyzed by flow cytometry. Internalization rate were calculated by subtracting the mean fluorescence intensity (MFI) of cell surface-bound antibody at 37° C. at each time point from the MFI of cell surface-bound antibody at 4° C. at time 0, then divided by the MFI of the cell surface-bound antibody at 4° C. at time 0.

[1] = molecular target: T1, human CD70 extra-cellular domain (ECD) (Homo sapiens, UniProt P32970); assay: Biolayer interferometry (BLI), human CD70; assay type: binding
T1 construct: human, rat, or mouse CD70 extra-cellular domain (ECD) linked to His tag; His tag; purchased ACRO systems
T1 sequence (P32970 39-193 limits assumed): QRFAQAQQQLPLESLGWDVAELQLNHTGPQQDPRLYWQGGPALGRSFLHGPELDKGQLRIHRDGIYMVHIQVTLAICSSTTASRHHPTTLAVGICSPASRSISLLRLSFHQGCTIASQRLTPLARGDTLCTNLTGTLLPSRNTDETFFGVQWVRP
Description: (§1) Recombinant proteins consisting of human, rat, or mouse CD70 extra-cellular domain (ECD) linked to His tag was purchased (from ACRO systems). 69A7 and 2E7 (20 nM) were immobilized on anti-human IgG Fc biosensor tips (ForteBio). Binding assays using one concentration (100 nM) of recombinant protein in solution were performed using Octet RED (ForteBio). Association time was set at 180s and dissociation time was set at 300s. Binding affinity was calculated using ForteBio Data Acquisition 6.3 software. Affinity was derived by fitting the kinetic data to a 1:1 Langmuir binding model utilizing global fitting algorithms. […] Binding assays for 2E7 using multiple dilutions (from 200 nM down to 3.13 nM) of species' recombinant CD70 ECD proteins in solution were also performed using the same method.

[2] = molecular target: T2, rat CD70 extra-cellular domain (ECD) (Rattus norvegicus, UniProt M0R613); assay: Biolayer interferometry (BLI), rat CD70; assay type: binding; details: for Response: *Response below range of quantification
T2 construct: human, rat, or mouse CD70 extra-cellular domain (ECD) linked to His tag; His tag; purchased ACRO systems
T2 sequence (M0R613 1-194): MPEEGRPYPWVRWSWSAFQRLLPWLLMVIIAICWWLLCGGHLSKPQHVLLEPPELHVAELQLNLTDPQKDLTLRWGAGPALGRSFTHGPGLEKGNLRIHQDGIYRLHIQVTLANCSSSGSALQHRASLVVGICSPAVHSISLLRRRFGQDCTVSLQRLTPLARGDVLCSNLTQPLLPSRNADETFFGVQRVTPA
Description: as §1

[3] = Hydrophobic interaction chromatography (HIC); assay type: physicochemical; details: full IgG
Description: Antibodies were purified from cleared cell culture supernatants using Protein A chromatography (Protein A resin slurry, 4.5 mL, Bogen, Cat #18-0010-02). Briefly, supernatants were prepared for affinity chromatography and loaded onto the columns and allowed to flow completely through the resin. The columns were washed with binding buffer containing 0.15M NaCl and 0.2M PB, PH7.0. Antibody was eluted with elution buffer containing 0.15M NaCl, 0.1M Glycine and 0.2M PB, PH 3.0. Fractions were collected and neutralized by the addition of 1/10 volume of 1M Tris, PH9.0. The fractions were dialyzed for 2 hours against 1×PBS. Purified antibody was quantified by absorbance at A280. Samples from each step of the protein A chromatography were applied onto 12% SDS-PAGE gels for reduced and non-reduced electrophoresis. The hydrophobicity was assessed with hydrophobic interaction chromatography (HIC) on a TSK gel Butyl-NPR, 4.6×100 mm with Butyl-NPR (Tosoh corporation) using a Waters HPLC 2695 system.

2E7 rat PK = assay type: in vivo, Sprague Dawley rats; details: intravenous infusion, 3 mg/kg, FIG. 14
Description: 2E7 was administered via intravenous infusion at 3 mg/kg to male Sprague Dawley rats (n=3 per group). Orbital blood was sampled from each rat at various time points post dosing. Circulating concentrations of 2E7 were analyzed by an ELISA assay (ProfoundBio) and calculated using the GraphPad Prism 6 software.

[4] = Hu CD70 100 nM, one concentration

B1: 2E7: anti-CD70 antibody clone, VH SEQ 7 and VL SEQ 8; tested as scFv and full human IgG1/kappa (antibody, V domains shown)
VH: QVQLQESGPGLVKPSETLSLTCTVSGGSVSSDYYYWSWIRQPPGKGLEWLGYIYYSGSTNYNPSLKSRVTISVDTSKNQFSLKLRSVTTADTAVYYCARGDGDFLGVCFDYWGQGTLVTVSS
VL: EIVLTQSPATLSLSPGERATLSCRASQSVSSYLAWYQQKPGQAPRLLIFDASNRATGIPARFSGSGSGTDFTLTISSLEPEDFAVYYCQQRSNWPLTFGGGTKVEIK
modifications: Synthetic 2E7 VH amino acid sequence; Synthetic 2E7 VL amino acid sequence
notes: tested as scFv and full human IgG1/kappa
In the case of B1, the “internalization, time course” value (Raji cells) is reported as “rapid internalization”, the Response ([1]; HU CD70 3.13 nM) is reported as 0.1732 and the Response ([1]; HU CD70 6.25 nM) is reported as 0.2136. For the same molecule, the Response ([1]; HU CD70 12.5 nM) was 0.3519, the Response ([1]; HU CD70 25 nM) was 0.5319 and the Response ([1]; HU CD70 50 nM) was 0.6227. For the same molecule, the Response ([1]; HU CD70 100 nM, dilution series) was 0.7695, the Response ([1]; HU CD70 200 nM) was 0.825 and the “ka” value ([1]; HU CD70, multiple dilutions 200-3.13 nM, global fit) was 314300 M⁻¹ s⁻¹. The Response [1, 4] was 0.5157, the “ka” value [1, 4] was 365000 M⁻¹ s⁻¹ and the Kd ([1]; human CD70, multiple dilutions (200 nM down to 3.13 nM), read-out: KD) was 0.81 nM. For the same molecule, the Kd ([1]; human CD70, one concentration (100 nM), read-out: equilibrium dissociation constant (KD)) was 0.97 nM, the Response ([2]; RAT CD70 3.13 nM) was “*0.0012” and the Response ([2]; RAT CD70 6.25 nM) was “*0.0192”. The Response ([2]; RAT CD70 12.5 nM) was “*−2.762E−03”, the Response ([2]; RAT CD70 25 nM) was “*0.0069” and the Response ([2]; RAT CD70 50 nM) was “*0.0126”. For the same molecule, the Response ([2]; RAT CD70 100 nM, dilution series) was “*0.0271”, the Response ([2]; RAT CD70 200 nM) was “*0.0054” and the “ka” value ([2]; RAT CD70, multiple dilutions 200-3.13 nM, global fit, responses below range of quantification) was 5.905e+06 M⁻¹ s⁻¹. The Response ([2]; Rat CD70 100 nM, one concentration) was “*0.0125”, the “ka” value ([2]; Rat CD70 100 nM, one concentration, response below range of quantification) was 4641 M⁻¹ s⁻¹ and the “cross-reactivity to rat CD70” value ([2]; multiple dilutions, Table 10) was “no cross-reactivity”. For the same molecule, the “cross-reactivity to rat CD70” value ([2]; one concentration (100 nM), Table 9) was “no cross-reactivity”, the “hydrophobicity compared with the parent antibody 69A7” value ([3]; HIC) was “slightly more hydrophobic than the parent antibody 69A7” and the “Retention time” value ([3]; hydrophobicity by HIC) was 10.19 min. The “plasma PK” value (2E7 rat PK) was “stable plasma PK in rat that is characteristic of IgG1 antibodies”.
